Measured values as given in article PMC3514788 (The Journal of Cell Biology, 2012).

B1: GST-Nup116 fragment from the N terminus to residue 172 (domain or fragment)
chain: MFGVSRGAFPSATTQPFGSTGSTFGGQQQQQQPVANTSAFGLSQQTNTTQAPAFGNFGNQTSNSPFGMSGSTTANGTPFGQSQLTNNNASGSIFGGMGNNTALSAGSASVVPNSTAGTSIKPFTTFEEKDPTTGVINVFQSITCMPEYRNFSFEELRFQDYQAGRKFGTSQN
B2: Drg1 (enzyme)
chain: MAPKSSSSGSKKKSSASSNSADAKASKFKLPAEFITRPHPSKDHGKETCTAYIHPNVLSSLEINPGSFCTVGKIGENGILVIARAGDEEVHPVNVITLSTTIRSVGNLILGDRLELKKAQVQPPYATKVTVGSLQGYNILECMEEKVIQKLLDDSGVIMPGMIFQNLKTKAGDESIDVVITDASDDSLPDVSQLDLNMDDMYGGLDNLFYLSPPFIFRKGSTHITFSKETQANRKYNLPEPLSYAAVGGLDKEIESLKSAIEIPLHQPTLFSSFGVSPPRGILLHGPPGTGKTMLLRVVANTSNAHVLTINGPSIVSKYLGETEAALRDIFNEARKYQPSIIFIDEIDSIAPNRANDDSGEVESRVVATLLTLMDGMGAAGKVVVIAATNRPNSVDPALRRPGRFDQEVEIGIPDVDARFDILTKQFSRMSSDRHVLDSEAIKYIASKTHGYVGADLTALCRESVMKTIQRGLGTDANIDKFSLKVTLKDVESAMVDIRPSAMREIFLEMPKVYWSDIGGQEELKTKMKEMIQLPLEASETFARLGISAPKGVLLYGPPGCSKTLTAKALATESGINFLAVKGPEIFNKYVGESERAIREIFRKARSAAPSIIFFDEIDALSPDRDGSSTSAANHVLTSLLNEIDGVEELKGVVIVAATNRPDEIDAALLRPGRLDRHIYVGPPDVNARLEILKKCTKKFNTEESGVDLHELADRTEGYSGAEVVLLCQEAGLAAIMEDLDVAKVELRHFEKAFKGIARGITPEMLSYYEEFALRSGSSS

How the values were obtained:
[1] = molecular target: GST-Rlp24C (S. cerevisiae) (UniProt Q07915); assay: SPR
Drg1 = molecular target: B2; assay: pull-down
[2] = molecular target: the molecule itself

Chain of GST-Rlp24C (S. cerevisiae) (Q07915 147-199): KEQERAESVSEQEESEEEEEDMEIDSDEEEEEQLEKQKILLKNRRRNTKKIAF

Drg1EQ1 (from UniProt P32794 1-780) (enzyme)
fold RU against the wild-type and EQ2 proteins [1]: 4 fold
kon2 (two-state reaction) [1]: 0.011 s⁻¹

B1
binding result (Drg1): binds

B2
stoichiometry N [2]: 6
